The labels stand for the following.
B4: LIP1-33 (other)
VH: EVQLLESGGGLVQPGGSLRLSCAASGFTFPSGTMGWVRQAPGKGLEWVSYIDPSGFMTYYADSVKGRFTISRDNSKNTLYLQMNSLRAEDTAVYYCAKSIVPRSGTFDYWGQGTLVTVSS
notes: Human VH domain antibody (dAb); also called LIP1-33 phage
B5: DC-SIGN peptide (9xHIS tag, linker and the C-terminal end of DC-SIGN) (peptide)
peptide: HHHHHHHHHSGSGKKSAASCSRDEEQFLSPAPATPNPPPA
notes: also called HIS tagged DC-SIGN peptide

The target in test [1] is T1, human DC-SIGN (human, UniProt Q9NNX6 62-404, limits assumed).
T1 construct: Coated on ELISA wells; also called CD209; DC-SIGN protein
T1 sequence: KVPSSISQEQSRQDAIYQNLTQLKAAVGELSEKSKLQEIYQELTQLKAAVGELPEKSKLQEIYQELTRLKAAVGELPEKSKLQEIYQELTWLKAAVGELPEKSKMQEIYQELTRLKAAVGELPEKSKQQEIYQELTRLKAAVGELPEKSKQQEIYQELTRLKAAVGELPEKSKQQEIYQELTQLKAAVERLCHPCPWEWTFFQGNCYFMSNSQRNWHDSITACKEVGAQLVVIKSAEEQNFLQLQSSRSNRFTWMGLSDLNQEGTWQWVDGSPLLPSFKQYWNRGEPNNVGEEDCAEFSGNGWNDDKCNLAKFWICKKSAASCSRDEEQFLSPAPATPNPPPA
Briefly: phage ELISA: DC-SIGN coated on the wells, serial dilutions of phage particles, detection with anti-M13 antibody-HRP and TMB, OD 450. The protocol:
(§1) Phage particles from individual LIP1 clones were prepared, and serial dilutions of phage particles were tested in ELISA. The ELISA wells were coated overnight at 4° C. with DC SIGN (1-10 μg/ml in PBS or 0.1 M NaHCO₃ buffer, pH 9.6). After blocking the wells with PBS containing 2% skimmed-milk powder (PBSM), phage was incubated in PBSM for 1 hr. After washing with PBS, bound phage were detected using a conjugate of horseradish peroxidase with an anti-M13 monoclonal antibody (Amersham) using 3,3′,5,5′-tetramethylbenzidine as substrate.
(§2) For phage ELISA, the ELISA wells were coated overnight at 4° C. with DC SIGN or DC SIGNR (R&D Cat nr 162-D2) at (1-10 μg/ml in PBS or 0.1 M NaHCO₃ buffer, pH 9.6). After blocking the wells with PBS containing 2% skimmed-milk powder (PBSM), phage was incubated in PBSM for 1 hr. After washing with PBS, bound phage were detected using a conjugate of horseradish peroxidase with an anti-M13 monoclonal antibody (Amersham) using 3,3′,5,5′-tetramethylbenzidine as substrate.

Test [2] has as its target B5. As to the kind of experiment: phage ELISA: DC-SIGN peptide coated on the wells, serial dilutions of LIP1-33 phage, detection with anti-M13 antibody-HRP and TMB, OD450. As to the method: as §1, with “LIP1-33” for “individual LIP1 clones”, “DC SIGNR, neutravidin, DC” for “DC”, “SIGN or DC SIGN peptide” for “SIGN”, “substrate. HEL4 and VKdummy are non-binding negative controls.” for “substrate.”
On the technique in general: An ELISA detects its analyte on a solid surface through an enzyme-linked reagent.

Another test has as its target T2, DC-SIGNR (Homo sapiens (Human), UniProt Q9H2X3 78-399, limits assumed).
T2 construct: Bought (R&D Cat nr 162-D2)
T2 sequence: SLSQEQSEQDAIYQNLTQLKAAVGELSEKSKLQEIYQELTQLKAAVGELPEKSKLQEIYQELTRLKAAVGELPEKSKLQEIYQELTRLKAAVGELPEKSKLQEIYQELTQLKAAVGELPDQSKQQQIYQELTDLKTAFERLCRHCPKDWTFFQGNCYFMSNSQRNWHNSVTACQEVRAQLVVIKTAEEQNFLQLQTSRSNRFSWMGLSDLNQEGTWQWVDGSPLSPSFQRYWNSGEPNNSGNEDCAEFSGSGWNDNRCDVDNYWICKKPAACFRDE
As to the kind of experiment: phage ELISA: DC-SIGNR coated on the wells, serial dilutions of LIP1-33 phage, detection with anti-M13 antibody-HRP and TMB, OD450. The protocol:
as §1, with “LIP1-33” for “individual LIP1 clones”, “DC SIGNR, neutravidin, DC” for “DC”, “SIGN or DC SIGN peptide” for “SIGN”, “substrate. HEL4 and VKdummy are non-binding negative controls.” for “substrate.”
as §2

The target in test [3] is T1, human DC-SIGN. Briefly: phage ELISA: DC-SIGN coated on the wells, serial dilutions of LIP1-33 phage, detection with anti-M13 antibody-HRP and TMB, OD450. As to the method: as §1, with “LIP1-33” for “individual LIP1 clones”, “DC SIGNR, neutravidin, DC” for “DC”, “SIGN or DC SIGN peptide” for “SIGN”, “substrate. HEL4 and VKdummy are non-binding negative controls.” for “substrate.”
as §2

For the test “LIP1-33”, the target named is B4. As to the kind of experiment: competition phage ELISA; HIS tagged peptide in solution as competitor (data not shown).
Test [4] concerns the target T1, human DC-SIGN. As to the kind of experiment: phage ELISA.

B1: 1-26 (other)
VH dAb: EVQLLESGGGLVQPGGSLRLSCAASGFTFSHYTMSWVRQAPGKGLEWVSSISSTGFKTYYADSVKGRFTISRDNSKNTLYLQMNSLRAEDTAVYYCAKWNPHRSTYFDYWGQGTLVTVSS
notes: human VH domain antibody, tested as phage particles; also called LIP1-26; LIP1-26 phage
On to B1, for which the binding result in the test with human DC-SIGN [1] is on record as “binds”.

B2: 1-15 (other)
VK dAb: DIQMTQSPSSLSASVGDRVTITCRASRAIGTYLAWYQQKPGKAPKLLILWGSVLQSGVPSRFSGSGSGTDFTLTISSLQPEDFATYYCAQLAQRPSTFGQGTKVEIKR
notes: human VK domain antibody, tested as phage particles; also called LIP1-15; LIP1-15 phage
For the molecule B2, in the test with human DC-SIGN [1], the binding result is listed as “binds”.

B3: 1-12 (other)
VK dAb: DIQMTQSPSSLSASVGDRVTITCRASRPIGTNLYWYQQKPGKAPKLLIVGGSFLQSGVPSRFSGSGSGTDFTLTISSLQPEDFATYYCGQRARYPGTFGQGTKVEIKR
notes: human VK domain antibody, tested as phage particles; also called LIP1-12; LIP1-12 phage
Turning to B3, the binding result with human DC-SIGN [1] is “binds”.

For the molecule B4, the values for the binding result (in test [2]; with DC-SIGNR; with human DC-SIGN [3]) were “binds”, “no binding” and “binds”, respectively.

Turning to B5, the binding result in the test with LIP1-33 was “binds”.

B6: 1-13 (other)
VK dAb: DIQMTQSPSSLSASVGDRVTITCRASQGIWQELKWYQQKPGKAPRLLIYRGSSLQSGVPSRFSGSGSGTDFTLTISSLQPEDFATYYCQQSFYPPYTFGQGTKVEIKR
notes: human VK domain antibody, tested as phage particles; also called LIP1-13; LIP1-13 phage
In the case of B6, the binding result in the test with human DC-SIGN [1] was “binds”.

B7: 1-23 (other)
VK dAb: DIQMTQSPSSLSASVGDRVTITCRASQDIWRELRWYQQKPGKAPKLLIYRASNLQSGVPSRLSGSGSGTDFTLTISSLQPEDFATYYCQQTFYPPYTFGQGTKVEIKR
notes: human VK domain antibody, tested as phage particles; also called LIP1-23; LIP1-23 phage
For the molecule B7, the binding result in the test with human DC-SIGN [1] was “binds”.

B8: LIP1-30 (other)
VH: EVQLLESGGGLVQPGGSLRLSCAASGFTFSGYSMAWVRQAPGKGLEWVSQIGPLGVKTYYADSVKGRFTISRDNSKNTLYLQMNSLRAEDTAVYYCAKLTSDAHDFDYWGQGTLVTVSS
notes: all other claims print 29
On to B8, for which, in the test with human DC-SIGN [4], the binding result was “binds”.

B9: LIP1-29 (other)
VH: EVQLLESGGGLVQPGGSLRLSCAASGFTFDRRAMGWVRQAPGKGLEWVSSIESDGTRTYYADSVKGRFTISRDNSKNTLYLQMNSLRAEDTAVYYCAKHPGSSYVFDYWGQGTLVTVSS
notes: all other claims print 34
For B9, the binding result with human DC-SIGN [1] is listed as “binds”.

B10: LIP1-25 (other)
VH: EVQLLESGGGLVQPGGSLRLSCAASGFTFPDADMVWVRQAPGKGLEWVSSISDHGFNTYYADSVKGRFTISRDNSKNTLYLQMNSLRAEDTAVYYCAKSPLATFDYWGQGTLVTVSS
For B10, the binding result in the test with human DC-SIGN [4] is reported as “binds”.

B11: LIP1-27 (other)
VH: EVQLLESGGGLVQPGGSLRLSCAASGFTFEQTDMHWARQAPGKGPEWVSSISPLGAFTYYADSVKGRFTISRDNSKNTLYLQMNSLRAEDTAVYYCAKSPLVRNNGQFDYWGQGTLVTVSS
For the molecule B11, the binding result in the test with human DC-SIGN [4] was “binds”.

B12: LIP1-28 (other)
VH: EVQLLESGGGLVQPGGSLRLSCAASGFTFVATPMHWVRQAPGKGLEWVSAISGSGGSTYYADSVKGRFTISRDNSKNTLYLQMNSLRAEDTAVYYCAKGWDPSLERFDYWGQGTLVTVSS
As to B12, the binding result in the test with human DC-SIGN [4] is “binds”.
